1 variant from PMC7262597 (2020) can be followed below.

B1: Sir2-myc [Drosophila] / GST-Atg8a-WT [Drosophila] (parent complex)
chain 1: MMENYEEIRLGHIRSKDLGNQVPDTTQFYPPTKFDFGAEILASTSTEAEAEAEATATTTEPATSELAGKANGEIKTKTLAAREEQEIGANLEHKTKNPTKSMGEDEDDEEEEEEDDEEEEEDDEEGITGTSNEDEDSSSNCSSSVEPDWKLRWLQREFYTGRVPRQVIASIMPHFATGLAGDTDDSVLWDYLAHLLNEPKRRNKLASVNTFDDVISLVKKSQKIIVLTGAGVSVSCGIPDFRSTNGIYARLAHDFPDLPDPQAMFDINYFKRDPRPFYKFAREIYPGEFQPSPCHRFIKMLETKGKLLRNYTQNIDTLERVAGIQRVIECHGSFSTASCTKCRFKCNADALRADIFAQRIPVCPQCQPNKEQSVDASVAVTEEELRQLVENGIMKPDIVFFGEGLPDEYHTVMATDKDVCDLLIVIGSSLKVRPVAHIPSSIPATVPQILINREQLHHLKFDVELLGDSDVIINQICHRLSDNDDCWRQLCCDESVLTESKELMPPEHSNHHLHHHLLHHRHCSSESERQSQLDTDTQSIKSNSSADYILGSAGTCSDSGFESSTFSCGKRSTAAEAAAIERIKTDILVELNETTALSCDRLGLEGPQTTVESYRHLSIDSSKDSGIEQCDNEATPSYVRPSNLVQETKTVAPSLTPIPQQRGKRQTAAERLQPGTFYSHTNNYSYVFPGAQVFWDNDYSDDDDEEEERSHNRHSDLFGNVGHNYKDDDEDACDLNAVPLSPLLPPSLEAHIVTDIVNGSNEPLPNSSPGQKRTACIIEQQPTPAIETEIPPLKKRRPSEENKQQTQIERSEESPPPGQLAAV
chain 2: MKFQYKEEHAFEKRRAEGDKIRRKYPDRVPVIVEKAPKARIGDLDKKKYLVPSDLTVGQFYFLIRKRIHLRPEDALFFFVNNVIPPTSATMGSLYQEHHEEDYFLYIAYSDENVYGMAKIN

The test covers variants of B1. In words: GST pull-down from larval lysate, anti-myc immunoblot, quantified; parent: 1; read off a plot. In general terms: A western blot detects proteins with antibodies after separation by electrophoresis.
In the case of chain 2 Y49A, the ratio to parent was approximately 0.21.
